# Values quoted from earlier work as cited in patent publication US8853185B2, “Coferons and methods of making and using them” (Cornell University, priority 2008, dated 2014).
# T1: ASK1 (Homo sapiens, UniProt Q99683)
# T1 sequence (Q99683 1-1374): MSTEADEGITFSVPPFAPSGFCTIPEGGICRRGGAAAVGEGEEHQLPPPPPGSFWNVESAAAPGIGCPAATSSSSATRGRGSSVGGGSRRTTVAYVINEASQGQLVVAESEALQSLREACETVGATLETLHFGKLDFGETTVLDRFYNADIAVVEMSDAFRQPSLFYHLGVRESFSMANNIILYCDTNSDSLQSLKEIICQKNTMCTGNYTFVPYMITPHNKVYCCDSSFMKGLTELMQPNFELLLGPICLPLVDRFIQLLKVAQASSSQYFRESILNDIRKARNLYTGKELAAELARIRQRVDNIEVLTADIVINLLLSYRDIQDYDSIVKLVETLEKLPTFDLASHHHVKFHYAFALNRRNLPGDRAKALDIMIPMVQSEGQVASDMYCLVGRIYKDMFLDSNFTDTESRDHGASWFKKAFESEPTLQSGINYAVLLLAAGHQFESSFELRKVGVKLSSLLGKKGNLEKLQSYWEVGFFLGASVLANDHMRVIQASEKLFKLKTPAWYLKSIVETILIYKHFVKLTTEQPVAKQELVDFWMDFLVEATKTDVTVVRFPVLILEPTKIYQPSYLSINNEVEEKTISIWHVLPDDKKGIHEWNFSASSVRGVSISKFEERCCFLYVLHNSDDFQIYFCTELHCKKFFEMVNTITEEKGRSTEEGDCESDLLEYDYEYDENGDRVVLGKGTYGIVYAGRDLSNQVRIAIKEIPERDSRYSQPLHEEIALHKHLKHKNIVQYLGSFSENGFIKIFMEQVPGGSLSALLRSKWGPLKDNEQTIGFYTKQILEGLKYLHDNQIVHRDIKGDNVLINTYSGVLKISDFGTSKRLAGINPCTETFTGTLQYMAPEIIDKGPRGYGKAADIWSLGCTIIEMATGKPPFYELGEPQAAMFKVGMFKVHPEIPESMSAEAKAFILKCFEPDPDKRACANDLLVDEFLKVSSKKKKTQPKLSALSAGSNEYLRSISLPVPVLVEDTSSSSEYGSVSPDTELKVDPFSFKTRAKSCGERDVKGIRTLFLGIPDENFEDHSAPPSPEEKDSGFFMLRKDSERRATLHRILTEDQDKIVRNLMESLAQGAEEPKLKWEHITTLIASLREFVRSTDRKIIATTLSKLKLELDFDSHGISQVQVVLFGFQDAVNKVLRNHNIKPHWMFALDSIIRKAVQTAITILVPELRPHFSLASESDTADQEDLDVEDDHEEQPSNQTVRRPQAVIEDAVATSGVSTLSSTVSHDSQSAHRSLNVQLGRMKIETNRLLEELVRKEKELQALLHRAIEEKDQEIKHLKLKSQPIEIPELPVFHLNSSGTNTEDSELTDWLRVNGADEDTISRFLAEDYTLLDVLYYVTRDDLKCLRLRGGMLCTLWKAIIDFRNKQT
# T2: NF2 (Homo sapiens, UniProt P35240)
# T2 sequence (P35240 1-595): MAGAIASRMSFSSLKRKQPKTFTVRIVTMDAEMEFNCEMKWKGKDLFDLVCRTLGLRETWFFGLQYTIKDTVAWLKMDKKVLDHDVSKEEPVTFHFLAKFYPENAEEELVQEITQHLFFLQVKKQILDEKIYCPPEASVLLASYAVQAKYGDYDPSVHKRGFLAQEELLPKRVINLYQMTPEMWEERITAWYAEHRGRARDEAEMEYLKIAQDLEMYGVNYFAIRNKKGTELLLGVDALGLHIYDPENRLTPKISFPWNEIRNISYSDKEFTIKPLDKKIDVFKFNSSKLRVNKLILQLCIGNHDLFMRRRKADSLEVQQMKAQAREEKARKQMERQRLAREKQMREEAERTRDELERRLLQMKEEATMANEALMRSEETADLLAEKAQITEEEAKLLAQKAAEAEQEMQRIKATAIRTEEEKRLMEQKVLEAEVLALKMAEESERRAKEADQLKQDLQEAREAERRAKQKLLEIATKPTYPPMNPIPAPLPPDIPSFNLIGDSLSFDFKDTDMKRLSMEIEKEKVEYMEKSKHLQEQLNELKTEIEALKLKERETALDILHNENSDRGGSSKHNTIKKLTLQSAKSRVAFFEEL
# T3: MKK4 (Homo sapiens, UniProt P45985)
# T3 sequence (P45985 1-399): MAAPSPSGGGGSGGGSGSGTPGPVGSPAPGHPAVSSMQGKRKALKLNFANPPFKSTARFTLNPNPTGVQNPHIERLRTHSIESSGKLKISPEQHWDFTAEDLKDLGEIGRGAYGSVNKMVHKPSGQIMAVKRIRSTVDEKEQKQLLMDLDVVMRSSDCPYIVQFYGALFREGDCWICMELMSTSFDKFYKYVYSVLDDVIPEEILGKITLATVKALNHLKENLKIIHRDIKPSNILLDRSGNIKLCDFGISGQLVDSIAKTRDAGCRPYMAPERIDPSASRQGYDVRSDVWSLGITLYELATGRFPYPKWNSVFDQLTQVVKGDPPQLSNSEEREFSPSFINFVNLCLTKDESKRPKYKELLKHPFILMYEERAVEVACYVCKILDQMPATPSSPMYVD
# B1: HmtSSB: binding partner of p53 (protein, UniProt Q04837 17-148, looked up)
# Single-stranded DNA-binding …: ESETTTSLVLERSLNRVHLLGRVGQDPVLRQVEGKNPVTIFSLATNEMWRSGDSEVYQLGDVSQKTTWHRISVFRPGLRDVAYQYVKKGSRIYLEGKIDYGEYMDKNNVRRQATTIIADNIIFLSDQTKEKE
# B2: ASK1: binding partner of ASK1 (protein, UniProt Q99683 1-1374, looked up)
# Mitogen-activated protein …: MSTEADEGITFSVPPFAPSGFCTIPEGGICRRGGAAAVGEGEEHQLPPPPPGSFWNVESAAAPGIGCPAATSSSSATRGRGSSVGGGSRRTTVAYVINEASQGQLVVAESEALQSLREACETVGATLETLHFGKLDFGETTVLDRFYNADIAVVEMSDAFRQPSLFYHLGVRESFSMANNIILYCDTNSDSLQSLKEIICQKNTMCTGNYTFVPYMITPHNKVYCCDSSFMKGLTELMQPNFELLLGPICLPLVDRFIQLLKVAQASSSQYFRESILNDIRKARNLYTGKELAAELARIRQRVDNIEVLTADIVINLLLSYRDIQDYDSIVKLVETLEKLPTFDLASHHHVKFHYAFALNRRNLPGDRAKALDIMIPMVQSEGQVASDMYCLVGRIYKDMFLDSNFTDTESRDHGASWFKKAFESEPTLQSGINYAVLLLAAGHQFESSFELRKVGVKLSSLLGKKGNLEKLQSYWEVGFFLGASVLANDHMRVIQASEKLFKLKTPAWYLKSIVETILIYKHFVKLTTEQPVAKQELVDFWMDFLVEATKTDVTVVRFPVLILEPTKIYQPSYLSINNEVEEKTISIWHVLPDDKKGIHEWNFSASSVRGVSISKFEERCCFLYVLHNSDDFQIYFCTELHCKKFFEMVNTITEEKGRSTEEGDCESDLLEYDYEYDENGDRVVLGKGTYGIVYAGRDLSNQVRIAIKEIPERDSRYSQPLHEEIALHKHLKHKNIVQYLGSFSENGFIKIFMEQVPGGSLSALLRSKWGPLKDNEQTIGFYTKQILEGLKYLHDNQIVHRDIKGDNVLINTYSGVLKISDFGTSKRLAGINPCTETFTGTLQYMAPEIIDKGPRGYGKAADIWSLGCTIIEMATGKPPFYELGEPQAAMFKVGMFKVHPEIPESMSAEAKAFILKCFEPDPDKRACANDLLVDEFLKVSSKKKKTQPKLSALSAGSNEYLRSISLPVPVLVEDTSSSSEYGSVSPDTELKVDPFSFKTRAKSCGERDVKGIRTLFLGIPDENFEDHSAPPSPEEKDSGFFMLRKDSERRATLHRILTEDQDKIVRNLMESLAQGAEEPKLKWEHITTLIASLREFVRSTDRKIIATTLSKLKLELDFDSHGISQVQVVLFGFQDAVNKVLRNHNIKPHWMFALDSIIRKAVQTAITILVPELRPHFSLASESDTADQEDLDVEDDHEEQPSNQTVRRPQAVIEDAVATSGVSTLSSTVSHDSQSAHRSLNVQLGRMKIETNRLLEELVRKEKELQALLHRAIEEKDQEIKHLKLKSQPIEIPELPVFHLNSSGTNTEDSELTDWLRVNGADEDTISRFLAEDYTLLDVLYYVTRDDLKCLRLRGGMLCTLWKAIIDFRNKQT
# B3: MPP1: binding partner of NF2 (protein, UniProt Q00013 2-466, looked up)
# 55 kDa erythrocyte membrane …: TLKASEGESGGSMHTALSDLYLEHLLQKRSRPEAVSHPLNTVTEDMYTNGSPAPGSPAQVKGQEVRKVRLIQFEKVTEEPMGITLKLNEKQSCTVARILHGGMIHRQGSLHVGDEILEINGTNVTNHSVDQLQKAMKETKGMISLKVIPNQQSRLPALQMFMRAQFDYDPKKDNLIPCKEAGLKFATGDIIQIINKDDSNWWQGRVEGSSKESAGLIPSPELQEWRVASMAQSAPSEAPSCSPFGKKKKYKDKYLAKHSSIFDQLDVVSYEEVVRLPAFKRKTLVLIGASGVGRSHIKNALLSQNPEKFVYPVPYTTRPPRKSEEDGKEYHFISTEEMTRNISANEFLEFGSYQGNMFGTKFETVHQIHKQNKIAILDIEPQTLKIVRTAELSPFIVFIAPTDQGTQTEALQQLQKDSEAIRSQYAHYFDLSLVNNGVDETLKKLQEAFDQACSSPQWVPVSWVY
# B4: JNK3: binding partner of MKK4 (protein, UniProt P53779 1-464, looked up)
# Mitogen-activated protein …: MSLHFLYYCSEPTLDVKIAFCQGFDKQVDVSYIAKHYNMSKSKVDNQFYSVEVGDSTFTVLKRYQNLKPIGSGAQGIVCAAYDAVLDRNVAIKKLSRPFQNQTHAKRAYRELVLMKCVNHKNIISLLNVFTPQKTLEEFQDVYLVMELMDANLCQVIQMELDHERMSYLLYQMLCGIKHLHSAGIIHRDLKPSNIVVKSDCTLKILDFGLARTAGTSFMMTPYVVTRYYRAPEVILGMGYKENVDIWSVGCIMGEMVRHKILFPGRDYIDQWNKVIEQLGTPCPEFMKKLQPTVRNYVENRPKYAGLTFPKLFPDSLFPADSEHNKLKASQARDLLSKMLVIDPAKRISVDDALQHPYINVWYDPAEVEAPPPQIYDKQLDEREHTIEEWKELIYKEVMNSEEKTKNGVVKGQPSPSGAAVNSSESLPPSSSVNDISSMSTDQTLASDTDSSLEASAGPLGCCR
# B5: GABP β: binding partner of GABP β (protein, UniProt Q06547 2-395, looked up)
# GA-binding protein subunit …: SLVDLGKKLLEAARAGQDDEVRILMANGAPFTTDWLGTSPLHLAAQYGHYSTTEVLLRAGVSRDARTKVDRTPLHMAASEGHASIVEVLLKHGADVNAKDMLKMTALHWATEHNHQEVVELLIKYGADVHTQSKFCKTAFDISIDNGNEDLAEILQIAMQNQINTNPESPDTVTIHAATPQFIIGPGGVVNLTGLVSSENSSKATDETGVSAVQFGNSSTSVLATLAALAEASAPLSNSSETPVVATEEVVTAESVDGAIQQVVSSGGQQVITIVTDGIQLGNLHSIPTSGIGQPIIVTMPDGQQVLTVPATDIAEETVISEEPPAKRQCIEIIENRVESAEIEEREALQKQLDEANREAQKYRQQLLKKEQEAEAYRQKLEAMTRLQTNKEAV
# Experiments:
# Conditions in all cases: read-out: DISSOCIATION CONSTANT (Kd)
# [1] = molecular target: p53 (Homo sapiens, UniProt P04637)
# p53, sequence (P04637 whole entry, species assumed): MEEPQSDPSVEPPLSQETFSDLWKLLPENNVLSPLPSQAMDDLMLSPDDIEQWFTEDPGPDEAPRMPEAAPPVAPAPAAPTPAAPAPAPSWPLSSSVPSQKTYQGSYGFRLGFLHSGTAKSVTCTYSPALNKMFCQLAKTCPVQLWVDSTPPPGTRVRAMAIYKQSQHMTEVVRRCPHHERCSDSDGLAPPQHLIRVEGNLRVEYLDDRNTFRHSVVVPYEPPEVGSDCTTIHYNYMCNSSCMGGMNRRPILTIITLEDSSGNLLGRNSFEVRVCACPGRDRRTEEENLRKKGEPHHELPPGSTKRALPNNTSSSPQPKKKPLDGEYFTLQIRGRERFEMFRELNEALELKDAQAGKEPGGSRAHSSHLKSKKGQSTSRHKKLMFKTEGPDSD
# [2] = molecular target: T1, ASK1
# [3] = molecular target: T2, NF2
# [4] = molecular target: T3, MKK4
# [5] = molecular target: GABP β (Homo sapiens, UniProt Q06547)
# GABP β, sequence (Q06547 whole entry): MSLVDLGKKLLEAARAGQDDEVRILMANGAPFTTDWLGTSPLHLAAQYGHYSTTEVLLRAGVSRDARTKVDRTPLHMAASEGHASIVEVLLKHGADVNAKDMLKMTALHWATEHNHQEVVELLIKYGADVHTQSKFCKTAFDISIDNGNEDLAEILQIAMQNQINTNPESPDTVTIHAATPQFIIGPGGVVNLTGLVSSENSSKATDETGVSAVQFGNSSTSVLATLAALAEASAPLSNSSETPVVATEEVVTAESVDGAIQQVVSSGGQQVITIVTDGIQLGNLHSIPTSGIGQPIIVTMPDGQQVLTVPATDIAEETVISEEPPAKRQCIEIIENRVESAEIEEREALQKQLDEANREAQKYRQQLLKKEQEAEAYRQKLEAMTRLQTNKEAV
molecule,measurement,setting,value
B1,Kd,[1],12700 nM
B2,Kd,[2],220 nM
B3,Kd,[3],3.7 nM
B4,Kd,[4],35000 nM
B5,Kd,[5],600 nM
